One assay deals with JRFL SOSIP.664 (HIV-1). The experiment in a line: ELISA on soluble trimer, panel JRFL SOSIP.664, OD 450. For orientation: An ELISA detects its analyte on a solid surface through an enzyme-linked reagent.
Assay [1] deals with BG505 SOSIP.664 Env ectodomain trimer (HIV-1). Description: SPR, BG505 SOSIP.664 captured by mAb 2G12, Fab in the flow phase.
The target is the same in assay [2]. The experiment in a line: ELISA on soluble trimer, panel BG505 SOSIP.664, OD 450.
Another assay deals with BG505 DS-SOSIP. Description: ELISA, panels headed BG505 DS-SOSIP, OD 450.
For assay [3], the target named is BG505 SOSIP.664 Env ectodomain trimer (HIV-1). Description: ELISA, BG505 SOSIP.664 coated on the plate, HRP anti-human IgG, OD 450.
Assay [4] deals with HIV-1 Env (wild type, as used in the mutagenesis mapping of FIG. 6) (HIV-1). The experiment in a line: cell-based or functional assay.
For assay [5], the target named is HIV-1 Env R304E mutant (HIV-1). The experiment in a line: cell-based or functional assay.
The target in assay [6] is BG505 SOSIP.664 Env ectodomain trimer (HIV-1). The experiment in a line: ELISA, panel 'N6 70-03 Binding to BG505 SOSIP.664', HIV-1 Env mutation: WT.

Consider eight molecules from patent US20210079070A1.

Usually EC50 (read off the curve) stands for the concentration giving half of the maximal effect. High values mean a need for much substance, low ones an effect from little substance. By Kd is commonly meant the equilibrium constant for the complex coming apart. Lower therefore signals tighter binding.

N6 (antibody): the concentration giving a half-maximal response (EC50 (read off the curve)) in the assay with JRFL SOSIP.664 (HIV-1) is 0.2 µg/mL.

The molecule N6 Fab yielded a Kd in [1] of 360 pM.

On to VRC01 (antibody), for which the results for the EC50 (read off the curve) (with JRFL SOSIP.664 (HIV-1); in [2]) were 0.2 µg/mL and 0.4 µg/mL, respectively.

In assay [1], VRC01 Fab displayed a dissociation constant Kd of 22100 pM. That is a double-digit nanomolar value.

B1: VRC03 (antibody, V domains shown)
VH: QVQLVQSGAVIKTPGSSVKISCRASGYNFRDYSIHWVRLIPDKGFEWIGWIKPLWGAVSYARQLQGRVSMTRQLSQDPDDPDWGVAYMEFSGLTSADTAEYFCVRRGSCDYCGDFPWQYWGQGTWVVSSA
VL: EIVLTQSPGILSLSPGETATLFCKASQGGNAMTWYQKRRGQVPRLLIYDTSRRASGVPDRFVGSGSGTDFFLTINKLDREDFAVYYCQQFEFFGLGSELEVH
Turning to B1, the results for the EC50 (read off the curve) (with BG505 DS-SOSIP; in assay [3]) were 0.3 µg/mL and 0.8 µg/mL, respectively.

B2: N6 70-03 (antibody, V domains shown)
VH: RAHLVQSGTAMKKPGASVRVSCQTSGYTFTAHILFWFRQAPGRGLEWVGWIKPQYGAVNFGGGFRDRVTLTRQLSQDPDDPDWGIAYMDIRGLKPDDTAVYYCARDRSYGDSSWALDAWGQGTTVVVSA
VL: YIHVTQSPSSLSVSIGDRVTINCQTSQGVGSDLHWYQHKPGRAPKLLIHHTSSVEDGVPSRFSGSGFHTSFNLTISDLQADDIATYYCQVLQFFGRGSRLHIK
As to B2, the neutralization sensitivity (IC50), Env-pseudovirus infection of TZM-bl cells turned out to be 0.007 µg/mL in [4] and 0.053 µg/mL in [5]. Moreover, the reduction in neutralization sensitivity compared to the WT virus in assay [5] was 8 fold. The EC50 (read off the curve) in the assay with JRFL SOSIP.664 (HIV-1) was 0.2 µg/mL; with E62K/E64K it was 0.1 µg/mL; in [6], 0.2 µg/mL; in assay [2], 0.2 µg/mL.

B3: N6 70-03 Fab (Fab, V domains shown)
VH: RAHLVQSGTAMKKPGASVRVSCQTSGYTFTAHILFWFRQAPGRGLEWVGWIKPQYGAVNFGGGFRDRVTLTRQLSQDPDDPDWGIAYMDIRGLKPDDTAVYYCARDRSYGDSSWALDAWGQGTTVVVSA
VL: YIHVTQSPSSLSVSIGDRVTINCQTSQGVGSDLHWYQHKPGRAPKLLIHHTSSVEDGVPSRFSGSGFHTSFNLTISDLQADDIATYYCQVLQFFGRGSRLHIK
In turn, B3 registered a Kd in assay [1] of 16 pM. This lies in the picomolar range.

B4: VRC06 (antibody, V domains shown)
VH: EVQLVESGPVMRKPGSSMKISCATSGYNFRDFSIHWVRFNRRYGFEWIGWIKPMWGAVNYARQLQGRVSMSRLFSQDLYYPDRGTAYLEFSGLTSADTADYFCVRRGSSCPHCGDFHFEHWGQGTAVVVSA
VL: EIVLTQSPATLSLSPGERATLSCRASQGGNSLNWYQKRRGQTPRLLIYDTSRRASDIPEKFVGSGSGTDFSLTITKVGPEDFAVYYCQQFEFFGLGTTLEIN
For the molecule B4, in the assay with BG505 DS-SOSIP, the concentration for a half-maximal effect (EC50 (read off the curve)) turned out to be 0.5 µg/mL.
